Measurements taken from EP4700044A1, “PROTEIN ANALOGUE AND USE THEREOF” (Shanghai Duomirui Biotechnology., Ltd., priority 2023, dated 2024).

The binders below were run against FGFR1c, P11362 (assay: cell-based or functional assay).
Chain of FGFR1c, P11362 (P11362 22-822): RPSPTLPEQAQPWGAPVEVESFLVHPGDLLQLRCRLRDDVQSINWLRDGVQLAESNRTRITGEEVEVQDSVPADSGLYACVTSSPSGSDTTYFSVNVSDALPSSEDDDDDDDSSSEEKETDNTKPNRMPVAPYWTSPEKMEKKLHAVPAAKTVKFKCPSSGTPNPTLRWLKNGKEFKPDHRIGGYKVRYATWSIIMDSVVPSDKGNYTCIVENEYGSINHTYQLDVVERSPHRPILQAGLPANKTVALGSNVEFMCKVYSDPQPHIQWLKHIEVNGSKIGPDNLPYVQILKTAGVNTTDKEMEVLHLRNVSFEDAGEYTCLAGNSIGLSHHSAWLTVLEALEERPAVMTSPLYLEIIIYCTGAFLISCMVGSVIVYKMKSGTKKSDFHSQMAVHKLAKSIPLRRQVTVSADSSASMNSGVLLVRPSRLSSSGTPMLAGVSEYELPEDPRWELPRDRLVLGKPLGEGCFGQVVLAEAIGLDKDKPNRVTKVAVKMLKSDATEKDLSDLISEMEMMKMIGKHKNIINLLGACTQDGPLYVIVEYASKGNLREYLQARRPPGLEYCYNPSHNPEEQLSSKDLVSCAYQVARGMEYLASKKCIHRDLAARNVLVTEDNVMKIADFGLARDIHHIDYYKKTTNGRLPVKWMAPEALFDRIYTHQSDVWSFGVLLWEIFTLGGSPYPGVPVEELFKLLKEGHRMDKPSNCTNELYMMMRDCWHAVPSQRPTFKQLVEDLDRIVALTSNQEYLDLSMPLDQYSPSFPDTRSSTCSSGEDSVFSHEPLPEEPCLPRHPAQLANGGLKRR

| Binder | EC50(nM), dual-luciferase reporter gene assay, iLite FGF21 assay ready cells |
| --- | --- |
| Compound 5.8, Q9NSA1 29-209 (ligand, here or on the partner: Cys 122 (K122C) carries the albumin-binding agent of Example 2.2, C18 Dicarboxylic Acid-gGlu-AEEA-AEEA-Lys(bromoacetyl)-COOH (bromine displaced by the thiol)) HPIPDSSPLLQFGGQVRQRYLYTDDAQQTEAHLEIREDGTVGGAADQSPESLLQLKALKPGVIQILGVKTSRFLCQRPDGALYGSLHFDPEACSFRERLLEDGYNVYQSEAHGLPLHLPGNCSPHRDPAPRGPARFLPLPGLPPAPPEPPGILAPQPPDVGSSDPLSMVGGSQGRSPSYES | 1.13 nM |
| Compound 5.7, Q9NSA1 29-209 (ligand, here or on the partner: Cys 46 (D46C) carries the albumin-binding agent of Example 2.2, C18 Dicarboxylic Acid-gGlu-AEEA-AEEA-Lys(bromoacetyl)-COOH (bromine displaced by the thiol)) HPIPDSSPLLQFGGQVRQRYLYTDDAQQTEAHLEIREDGTVGGAACQSPESLLQLKALKPGVIQILGVKTSRFLCQRPDGALYGSLHFDPEACSFRERLLEDGYNVYQSEAHGLPLHLPGNKSPHRDPAPRGPARFLPLPGLPPAPPEPPGILAPQPPDVGSSDPLSMVGGSQGRSPSYES | 1.06 nM |
| Compound 5.2, Q9NSA1 29-209 (ligand, here or on the partner: Cys 38 (D38C) carries the albumin-binding agent of Example 2.1, C18 Dicarboxylic Acid-AEEA-gGlu-gGlu-Lys(bromoacetyl)-COOH (bromine displaced by the thiol)) HPIPDSSPLLQFGGQVRQRYLYTDDAQQTEAHLEIRECGTVGGAADQSPESLLQLKALKPGVIQILGVKTSRFLCQRPDGALYGSLHFDPEACSFRERLLEDGYNVYQSEAHGLPLHLPGNKSPHRDPAPRGPARFLPLPGLPPAPPEPPGILAPQPPDVGSSDPLSMVGGSQGRSPSYES | 1.99 nM |
| Compound 5.12, Q9NSA1 29-209 (ligand, here or on the partner: Cys 125 (H125C) carries the albumin-binding agent of Example 2.3, C20 Dicarboxylic Acid-AEEA-gGlu-gGlu-Lys(bromoacetyl)-COOH (bromine displaced by the thiol)) HPIPDSSPLLQFGGQVRQRYLYTDDAQQTEAHLEIREDGTVGGAADQSPESLLQLKALKPGVIQILGVKTSRFLCQRPDGALYGSLHFDPEACSFRERLLEDGYNVYQSEAHGLPLHLPGNKSPCRDPAPRGPARFLPLPGLPPAPPEPPGILAPQPPDVGSSDPLSMVGGSQGRSPSYES | 1.4 nM |
| Compound 5.3, Q9NSA1 29-209 (ligand, here or on the partner: Cys 46 (D46C) carries the albumin-binding agent of Example 2.1, C18 Dicarboxylic Acid-AEEA-gGlu-gGlu-Lys(bromoacetyl)-COOH (bromine displaced by the thiol)) HPIPDSSPLLQFGGQVRQRYLYTDDAQQTEAHLEIREDGTVGGAACQSPESLLQLKALKPGVIQILGVKTSRFLCQRPDGALYGSLHFDPEACSFRERLLEDGYNVYQSEAHGLPLHLPGNKSPHRDPAPRGPARFLPLPGLPPAPPEPPGILAPQPPDVGSSDPLSMVGGSQGRSPSYES | 0.24 nM |
| Compound 5.11, Q9NSA1 29-209 (ligand, here or on the partner: Cys 122 (K122C) carries the albumin-binding agent of Example 2.3, C20 Dicarboxylic Acid-AEEA-gGlu-gGlu-Lys(bromoacetyl)-COOH (bromine displaced by the thiol)) HPIPDSSPLLQFGGQVRQRYLYTDDAQQTEAHLEIREDGTVGGAADQSPESLLQLKALKPGVIQILGVKTSRFLCQRPDGALYGSLHFDPEACSFRERLLEDGYNVYQSEAHGLPLHLPGNCSPHRDPAPRGPARFLPLPGLPPAPPEPPGILAPQPPDVGSSDPLSMVGGSQGRSPSYES | 2.09 nM |
| Compound 5.5, Q9NSA1 29-209 (ligand, here or on the partner: Cys 125 (H125C) carries the albumin-binding agent of Example 2.1, C18 Dicarboxylic Acid-AEEA-gGlu-gGlu-Lys(bromoacetyl)-COOH (bromine displaced by the thiol)) HPIPDSSPLLQFGGQVRQRYLYTDDAQQTEAHLEIREDGTVGGAADQSPESLLQLKALKPGVIQILGVKTSRFLCQRPDGALYGSLHFDPEACSFRERLLEDGYNVYQSEAHGLPLHLPGNKSPCRDPAPRGPARFLPLPGLPPAPPEPPGILAPQPPDVGSSDPLSMVGGSQGRSPSYES | 0.52 nM |
| Compound 5.9, Q9NSA1 29-209 (ligand, here or on the partner: Cys 125 (H125C) carries the albumin-binding agent of Example 2.2, C18 Dicarboxylic Acid-gGlu-AEEA-AEEA-Lys(bromoacetyl)-COOH (bromine displaced by the thiol)) HPIPDSSPLLQFGGQVRQRYLYTDDAQQTEAHLEIREDGTVGGAADQSPESLLQLKALKPGVIQILGVKTSRFLCQRPDGALYGSLHFDPEACSFRERLLEDGYNVYQSEAHGLPLHLPGNKSPCRDPAPRGPARFLPLPGLPPAPPEPPGILAPQPPDVGSSDPLSMVGGSQGRSPSYES | 1.18 nM |
| Compound 5.15, Q9NSA1 29-209 (ligand, here or on the partner: Cys 125 (H125C) carries the albumin-binding agent of Example 2.4, C20 Dicarboxylic Acid-gGlu-AEEA-AEEA-Lys(bromoacetyl)-COOH (bromine displaced by the thiol)) HPIPDSSPLLQFGGQVRQRYLYTDDAQQTEAHLEIREDGTVGGAADQSPESLLQLKALKPGVIQILGVKTSRFLCQRPDGALYGSLHFDPEACSFRERLLEDGYNVYQSEAHGLPLHLPGNKSPCRDPAPRGPARFLPLPGLPPAPPEPPGILAPQPPDVGSSDPLSMVGGSQGRSPSYES | 0.47 nM |
| Compound 5.14, Q9NSA1 29-209 (ligand, here or on the partner: Cys 122 (K122C) carries the albumin-binding agent of Example 2.4, C20 Dicarboxylic Acid-gGlu-AEEA-AEEA-Lys(bromoacetyl)-COOH (bromine displaced by the thiol)) HPIPDSSPLLQFGGQVRQRYLYTDDAQQTEAHLEIREDGTVGGAADQSPESLLQLKALKPGVIQILGVKTSRFLCQRPDGALYGSLHFDPEACSFRERLLEDGYNVYQSEAHGLPLHLPGNCSPHRDPAPRGPARFLPLPGLPPAPPEPPGILAPQPPDVGSSDPLSMVGGSQGRSPSYES | 1.02 nM |
| Compound 5.4, Q9NSA1 29-209 (ligand, here or on the partner: Cys 122 (K122C) carries the albumin-binding agent of Example 2.1, C18 Dicarboxylic Acid-AEEA-gGlu-gGlu-Lys(bromoacetyl)-COOH (bromine displaced by the thiol)) HPIPDSSPLLQFGGQVRQRYLYTDDAQQTEAHLEIREDGTVGGAADQSPESLLQLKALKPGVIQILGVKTSRFLCQRPDGALYGSLHFDPEACSFRERLLEDGYNVYQSEAHGLPLHLPGNCSPHRDPAPRGPARFLPLPGLPPAPPEPPGILAPQPPDVGSSDPLSMVGGSQGRSPSYES | 0.99 nM |
| Compound 5.6, Q9NSA1 29-209 (ligand, here or on the partner: Cys 38 (D38C) carries the albumin-binding agent of Example 2.2, C18 Dicarboxylic Acid-gGlu-AEEA-AEEA-Lys(bromoacetyl)-COOH (bromine displaced by the thiol)) HPIPDSSPLLQFGGQVRQRYLYTDDAQQTEAHLEIRECGTVGGAADQSPESLLQLKALKPGVIQILGVKTSRFLCQRPDGALYGSLHFDPEACSFRERLLEDGYNVYQSEAHGLPLHLPGNKSPHRDPAPRGPARFLPLPGLPPAPPEPPGILAPQPPDVGSSDPLSMVGGSQGRSPSYES | 2.06 nM |
| Compound 5.13, Q9NSA1 29-209 (ligand, here or on the partner: Cys 46 (D46C) carries the albumin-binding agent of Example 2.4, C20 Dicarboxylic Acid-gGlu-AEEA-AEEA-Lys(bromoacetyl)-COOH (bromine displaced by the thiol)) HPIPDSSPLLQFGGQVRQRYLYTDDAQQTEAHLEIREDGTVGGAACQSPESLLQLKALKPGVIQILGVKTSRFLCQRPDGALYGSLHFDPEACSFRERLLEDGYNVYQSEAHGLPLHLPGNKSPHRDPAPRGPARFLPLPGLPPAPPEPPGILAPQPPDVGSSDPLSMVGGSQGRSPSYES | 1.84 nM |
| Compound 5.10, Q9NSA1 29-209 (ligand, here or on the partner: Cys 46 (D46C) carries the albumin-binding agent of Example 2.3, C20 Dicarboxylic Acid-AEEA-gGlu-gGlu-Lys(bromoacetyl)-COOH (bromine displaced by the thiol)) HPIPDSSPLLQFGGQVRQRYLYTDDAQQTEAHLEIREDGTVGGAACQSPESLLQLKALKPGVIQILGVKTSRFLCQRPDGALYGSLHFDPEACSFRERLLEDGYNVYQSEAHGLPLHLPGNKSPHRDPAPRGPARFLPLPGLPPAPPEPPGILAPQPPDVGSSDPLSMVGGSQGRSPSYES | 2.69 nM |
| Compound 5.1, Q9NSA1 29-209 (ligand, here or on the partner: Cys 30 (E30C) carries the albumin-binding agent of Example 2.1, C18 Dicarboxylic Acid-AEEA-gGlu-gGlu-Lys(bromoacetyl)-COOH (bromine displaced by the thiol)) HPIPDSSPLLQFGGQVRQRYLYTDDAQQTCAHLEIREDGTVGGAADQSPESLLQLKALKPGVIQILGVKTSRFLCQRPDGALYGSLHFDPEACSFRERLLEDGYNVYQSEAHGLPLHLPGNKSPHRDPAPRGPARFLPLPGLPPAPPEPPGILAPQPPDVGSSDPLSMVGGSQGRSPSYES | 4.61 nM |

Now from value to binder:

| EC50(nM), dual-luciferase reporter gene assay, iLite FGF21 assay ready cells | Binder |
| --- | --- |
| 0.25 nM | Human mature FGF21 mutant RGE (FGF21RGE), Q9NSA1 29-209 (ligand) HPIPDSSPLLQFGGQVRQRYLYTDDAQQTEAHLEIREDGTVGGAADQSPESLLQLKALKPGVIQILGVKTSRFLCQRPDGALYGSLHFDPEACSFRERLLEDGYNVYQSEAHGLPLHLPGNKSPHRDPAPRGPARFLPLPGLPPAPPEPPGILAPQPPDVGSSDPLSMVGGSQGRSPSYES |
| 1.31 nM | Human mature FGF21 mutant E30C (FGF21E30C), Q9NSA1 29-209 (ligand) HPIPDSSPLLQFGGQVRQRYLYTDDAQQTCAHLEIREDGTVGGAADQSPESLLQLKALKPGVIQILGVKTSRFLCQRPDGALYGSLHFDPEACSFRERLLEDGYNVYQSEAHGLPLHLPGNKSPHRDPAPRGPARFLPLPGLPPAPPEPPGILAPQPPDVGSSDPLSMVGGSQGRSPSYES |
| 0.3 nM | Human mature FGF21 mutant K122C (FGF21K122C), Q9NSA1 29-209 (ligand) HPIPDSSPLLQFGGQVRQRYLYTDDAQQTEAHLEIREDGTVGGAADQSPESLLQLKALKPGVIQILGVKTSRFLCQRPDGALYGSLHFDPEACSFRERLLEDGYNVYQSEAHGLPLHLPGNCSPHRDPAPRGPARFLPLPGLPPAPPEPPGILAPQPPDVGSSDPLSMVGGSQGRSPSYES |
| 0.28 nM | Human mature FGF21 mutant D46C (FGF21D46C), Q9NSA1 29-209 (ligand) HPIPDSSPLLQFGGQVRQRYLYTDDAQQTEAHLEIREDGTVGGAACQSPESLLQLKALKPGVIQILGVKTSRFLCQRPDGALYGSLHFDPEACSFRERLLEDGYNVYQSEAHGLPLHLPGNKSPHRDPAPRGPARFLPLPGLPPAPPEPPGILAPQPPDVGSSDPLSMVGGSQGRSPSYES |
| 1 nM | Human mature FGF21 mutant D38C (FGF21D38C), Q9NSA1 29-209 (ligand) HPIPDSSPLLQFGGQVRQRYLYTDDAQQTEAHLEIRECGTVGGAADQSPESLLQLKALKPGVIQILGVKTSRFLCQRPDGALYGSLHFDPEACSFRERLLEDGYNVYQSEAHGLPLHLPGNKSPHRDPAPRGPARFLPLPGLPPAPPEPPGILAPQPPDVGSSDPLSMVGGSQGRSPSYES |
| 0.28 nM | Human mature FGF21 mutant H125C (FGF21H125C), Q9NSA1 29-209 (ligand) HPIPDSSPLLQFGGQVRQRYLYTDDAQQTEAHLEIREDGTVGGAADQSPESLLQLKALKPGVIQILGVKTSRFLCQRPDGALYGSLHFDPEACSFRERLLEDGYNVYQSEAHGLPLHLPGNKSPCRDPAPRGPARFLPLPGLPPAPPEPPGILAPQPPDVGSSDPLSMVGGSQGRSPSYES |
